From PMC10397247
Blank lines part the entries; values can stand above or below the binder they belong to.

Experiments:
Experiment in all cases: two-hybrid library CCNG1;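 further: natural log of median RNA to DNA barcode read ratio; higher means stronger binding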
P2A = biological target: T1, P2A
T1 chain: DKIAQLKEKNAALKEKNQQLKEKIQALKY

P3A = biological target: T2, P3A
T2 chain: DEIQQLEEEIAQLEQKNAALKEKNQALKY

P4A = biological target: T3, P4A
T3 chain: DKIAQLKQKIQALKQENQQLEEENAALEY

P5A = biological target: T4, P5A
T4 chain: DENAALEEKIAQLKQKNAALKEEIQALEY

P6A = biological target: T5, P6A
T5 chain: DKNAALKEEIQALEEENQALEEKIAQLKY

P7A = biological target: T6, P7A
T6 chain: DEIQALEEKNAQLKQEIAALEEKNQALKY

P8A = biological target: T7, P8A
T7 chain: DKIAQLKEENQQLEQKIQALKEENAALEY

P9A = biological target: T8, P9A
T8 chain: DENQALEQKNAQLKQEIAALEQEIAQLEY

4H2223-bN = biological target: T9, 4H2223-bN
T9 chain: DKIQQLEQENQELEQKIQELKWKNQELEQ

4H2438-bN = biological target: T10, 4H2438-bN
T10 chain: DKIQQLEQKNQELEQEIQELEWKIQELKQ

4H2473-bN = biological target: T11, 4H2473-bN
T11 chain: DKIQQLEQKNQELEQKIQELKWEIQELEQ

4H2503-bN = biological target: T12, 4H2503-bN
T12 chain: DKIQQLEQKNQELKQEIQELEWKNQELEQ

4H2588-bN = biological target: T13, 4H2588-bN
T13 chain: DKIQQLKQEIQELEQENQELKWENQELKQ

4H2692-bN = biological target: T14, 4H2692-bN
T14 chain: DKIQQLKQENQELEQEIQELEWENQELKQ

4H2717-bN = biological target: T15, 4H2717-bN
T15 chain: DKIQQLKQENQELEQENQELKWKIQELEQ

4H2839-bN = biological target: T16, 4H2839-bN
T16 chain: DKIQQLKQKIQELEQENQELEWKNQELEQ

4H2915-bN = biological target: T17, 4H2915-bN
T17 chain: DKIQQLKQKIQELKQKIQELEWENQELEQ

4H3057-bN = biological target: T18, 4H3057-bN
T18 chain: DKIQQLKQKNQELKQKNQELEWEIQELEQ

4H319-bN = biological target: T19, 4H319-bN
T19 chain: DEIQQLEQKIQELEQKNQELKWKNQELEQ

4H3277-bN = biological target: T20, 4H3277-bN
T20 chain: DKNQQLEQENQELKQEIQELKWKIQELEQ

4H3381-bH = biological target: T21, 4H3381-bH
T21 chain: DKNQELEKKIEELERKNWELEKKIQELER

4H40-bN = biological target: T22, 4H40-bN
T22 chain: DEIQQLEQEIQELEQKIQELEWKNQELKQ

4H477-bN = biological target: T23, 4H477-bN
T23 chain: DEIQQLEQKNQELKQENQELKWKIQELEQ

4H492-bN = biological target: T24, 4H492-bN
T24 chain: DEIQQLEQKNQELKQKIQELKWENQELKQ

4H741-bN = biological target: T25, 4H741-bN
T25 chain: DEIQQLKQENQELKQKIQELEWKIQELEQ

interaction score (P2A): -1.07 | interaction score (P3A): -1.21 | interaction score (P4A): -1.63 | interaction score (P5A): -1.27 | interaction score (P6A): -0.59 | interaction score (P7A): -2.38 | interaction score (P8A): -0.85 | interaction score (P9A): -0.481
Binder: DKIAQLKEKNAALKEKNQQLKEKIQALKY [P2A]

interaction score (4H2223-bN): 0.483 | interaction score (4H2438-bN): -0.0421 | interaction score (4H2473-bN): -0.941 | interaction score (4H2503-bN): 1.04 | interaction score (4H2588-bN): 0.654 | interaction score (4H2692-bN): -0.818 | interaction score (4H2717-bN): -2.14 | interaction score (4H2839-bN): -0.721 | interaction score (4H2915-bN): -1.33 | interaction score (4H3057-bN): -0.362 | interaction score (4H319-bN): -0.943 | interaction score (4H3277-bN): -0.393 | interaction score (4H3381-bH): 0.0621 | interaction score (4H40-bN): -0.775 | interaction score (4H477-bN): -1.55 | interaction score (4H492-bN): 0.539 | interaction score (4H741-bN): -0.691
Binder: DKIQQLEQENQELEQKIQELKWKNQELEQ [4H2223-bN]
